According to a protein production outcome set (Wang et al. 2014):

assay: label from the status in PepcDB records

For “MREVNEGASAYPGQRATGESIERGGGGLSVSDLLAKVMTAAAPQPTGSGTESGPGAGPTAGPSLDVDGLAVAVAATAGRYLPGGHLSPDSDFFDAGGTSVHAVELVAELERELGMEIALDDVFADARPRTLARRWLSAGGAPAAHSATPATPEPTAAGVAATGVTAIGATAAGAAVAGATAAGVAATPGLLPLSAAGTRPAPAPSGLPVPSPRTPPAVAATPPPGSGDAPYSTARREDLDQILADLALADRLPWTGAPEPLPPRRILLTGATGFLGSHMLLDLLRHSDAHVYCLVRAADEEAATARLGQALKGYELPWSSEVRRRVTVLPGDIRHPRLGLSDDLWNTLAHELDSVVGVAAAVDFLRGYPSLRQSNVLGALTLAELAATGRPKPLHHISSIAVFNEVGITAMGEDDPLARVDRLVAGYDQTKWTAEVALRRARDHGLLVTAMRPGGIGGHTRTGAYNPQDLSSGLISAFGRFRTVPAFRYLNAAPVDWVSRVAVGVICEPDAWGYDYNLTGVPNTLDDVVQDMALGGMHVRVQDWDEWRTDALARLEADPVPELAFLTRVLRSPTALKLCEATLKGPAAHDDRTAALVEALGLGPAARYDAQAQLRTFERLARDGLARLPHKDDQPYLWFSERTEGGVGPVGAPADTPCSMALTLSIASMYQLVKERRVDVSGELVCAAVHPEPLTVERGDVWIRPEEGIPEQHGMRHQLLRYRLELRDTDGGHWWLEGHKYARARRDVWRQTRALTVEIGRAGEPARLTGEVVVPADSYVRDQIDGIKVDPRLTSQEKRAAKLTWLAWFGLEVGRGLLGPFARVAADLLDLRRNPTLTERNR”, which protein production is on record?
Its protein production is “failed”.

Which protein production does the source give for “MREVSLRIDRYLVNTRITPNQLTYLMTVCGVLAAPALLVPGIWGAVLGVVAVQLYLLLDCVDGEIARWRKQYSLGGVYLDRVGAYLTDAAVLVGLGLRAADIWGTGRIDWLWAFLGTLAALGAILIKAETDLVGVARHQNGMPPVKEAASEIRSSGMALARRAAGALKFHRLILGIEATLLILVLAIVDQARGDLFFTRLGTAVLAGIALLQTLLHLVSILASSRLK” here?
Its protein production is “failed”.

Which protein production does the source give for “MREYNNPSDFKSFHDFVASYMKTYSRRLEIGTFRHHKSCMRKFKEYCEGLQFHELTEDFLRDYLIYMKKTLCNADSTAQRNLSTIKIYVSAAIKKGYMENDPFKDFGVKRLEHHHHHH” here?
Its protein production is “not failed”.

For “MRFSRARTEEVLRALVHEIRAERLTFMAGSIAYHAFLSILPLLLLVLTFVQRTENVTLRASIVGIMEAVLTTQASGIIQQGLTEADASVSALGVGFLLWGSLRIFRGLDTAFSDIYETGASNTFLDQLGDGLVLLVTVAVAILSASALGSVLPETGSGPLWTVASGLVRAAGLFVVFYPMYYIFPDTDVSPLEAVPGVAFAAIGLTVAQVLFTAFKSGSTGGNIIASILVLLSWLYIIGLVILLGAAINAVLSNRSADVDIDPVVGEHSQQNTIRTTTMSREALLAELETLADRFQQGQGTITVEIADERTDIDCPETATVDRSSDVFGLDQSVALTLRWWPNEK”, which protein production is on record?
Its protein production is “failed”.

For “MRFTNTILMTTFTALLAVALVAGCASKKKDETDPFFSKWQSLASNSTGFSPPKVVRDVKPKTLLRQEEVTAKQEEQKRPLPQMPVTLKLHNVDVGVALRSLAAAANTSIIVSPGVKGTASINVNRVPWEDVFKGILASNALDFAWRGELIQVMTLADKKAEVERELLETQRMAQQLKGRKVGPLVTSVIEVRYAEAAELKKNLEGFLSKDEQNKPVGAVVVDTHTNSLIVQAVEDDLSKIITLVNNLDKPRAQILLKAHIVEATRDTARDLGIQWGGVGRSGNMGDGNRMWVTPGGSGPTKPTDPQAGGGVPVIPPGGLSGQGFGMNFPVNKAGKTAMGSLGLMFGTIGGNMLEVQLSALQDNGKLNILSSPSISTLDNQMAFTENGEKVPYVSTNAQGDREVKFEDAVLRLEITPHVIDESNLKLKVQVKKDEVDLTRTVEGNPFIIKKQTETTLIVQDGETVVISGLTKERSSTRRQGLPYLQDVEGIGALFGNDSKANKLEDVLIFITPAILPYREETSVN”, which protein production is on record?
Its protein production is “failed”.

With “MRGAESLVTLNHKILRPCRKLLIRITKSCPRRHNRHLKLKKASSSSSTASGNKVTKVVALFFLSFHKKKQKKEKMKRLNELRSFSHAVNDQKKKAPKQESSKKVFPSRLTMSWLGQGKGNNNNTQEVPQEHDARRDSTSAFIP” as the sequence, how does the protein production read?
Its protein production is “failed”.

Which protein production does the source give for “MRGIAIIFIVLGHSIYNSGEGFPVLLENLLRGGTALFVFISGYFFHRIFYKDFDYGKFMKNKVQNVLYPFLFVSIVGLFCLSLRWVFMEHQSLEQVLLSIFYTVRNGYILYPHWYIPFIMAVFLFSPVFLWFIRCSQQMRWTLFVLSCVVAILLHRPIGNVNFIHSVVYYLPFYLIGILYSQDEHIVTRYGSILSALAGIFLVVSLVEQSYIVQHVGNYHKAPFEYNGIDWQFIQKLSLCVLVLNFCDWLSQRSRLPWLIETAEMSFAIFFIHPLFDMLFNTTATIFRYRFPPDSWVTSILFSFGIFLFLMVSSMMTARLIKKRLGNRSRLFIGW” here?
The protein production was “failed”.

For “MRGILRMTVLAAAVFGVAGNALAEDWKLAKDEDGVKVYLSSVQGSKYKAYRGVTDIKADVATIEALQEDVKGSCKWIHACAEMKLLKQEGADAWTYSKIDMPWPVTGRDVVIHVTTEKTADGTVIRHLKADPTYIPEEKGQIRVPKLVGEWKLQPKGQGVTEVTYQVETEPGGSIPSWLANSFVVDAPLNTLKGLRSAAEKR”, which protein production is on record?
Its protein production is “failed”.

For “MRGKQSHMSCEHYSNNCLVRFECCSSLYPCRLCHDKAEAHRANRYEVSQIVCGTCNLLQPKTQTCLQCLAAVSKYFCSKCNLWDSSDDQIFHCDGCNVCRRGDPKSSFHCDICQTCLVTRGPRDHTHVENTASGNCPICAEEMSESMEVLVLLRCGHSLHERCFNEFIKETYTCPMCSKPIGDTSIINRKVECLLGMEPPSPEQSPKNIAKCTNCNNLSKCGAIQNKCPFCGLRGVVDAAQEKNVKSQCLKPEE”, which protein production is on record?
The protein production was “failed”.

Which protein production does the source give for “MRGLAACYSEHAIKVSDTYCSGPSNHSYISPTLPPSIPDTVTTTYRSNLPSSDKPVSVSLTWSDNLTVVISTPPKSYSVSLRKPKGSRKLTSSSGSLNAEILWDLSEAEYENNGPEPIRRFFVVVVVNSEITLGVGDVDHERDTSSSSSWRVSKTERFSGTCWLTTKAQFSDVGRKHEIQIQCGGGGGGGGEEGYLWKVKSPETMSVYVDKRKVFSVKKLKWNFRGNQTMFFDGMLIDMMWDLHDWFYKETLSSVSTSSSSKTASSSSSSSTSSSTPPCAVFMFRRRSGLDSRLWIDEDEQESEMKKNIGSRDEKHSFSLIICASKK” here?
Its protein production is “failed”.

With “MRGLSLSPVVLPEVRREAGVELRKARLEDVDAIYWLIRYWAEKGLMLVRSHSHLYENIRDFWVLEDEDGQIVGTVALHVLWRDLAEIRGLAVHPTRQGQGLGRWLVLGAEREARDLGLPRVFAWTLQVNFFRALGYRVTSR” as the sequence, how does the protein production read?
Its protein production is “failed”.

For “MRGLSRNSGAAAIFAILLILAVHNWSVAVSSQSTEFAGDFPPFETECRGTIAECSVSAALGDGGDLFYGGGEMGEEFEMDSEINRRILATRRYISYGALRRNTIPCSRRGASYYNCRRGAQANPYSRGCSAITRCRRS”, which protein production is on record?
Its protein production is “failed”.

With “MRGPGSASVRGYGQCKDTLHTSSPFHEAPASVRRPRTTGRVHTLGIRAPPPPRSQPEFLFSGNPFAPVSSVQRDAARRVSPRIPSLDQASRRPVAKLVVPGGNGFIGTEICRVAVQNGHEVAAFGRTGRPALTPARHPWVQDVEWRAADVFAPDAWRDLLDGADAVVHTIATIREHPDRNVTFDRVNAESALRAAEAAVAADVGAVVFLSVRDKPPLVPYAFLSAKRRAERALREDHPSLRTVTLCPNLVYGARKTGTPTLAAVLNQAQGMRPHPYATAEGRPLPVEFVAAAAVQAAVTSTMEGTLTVPQIDDIGRTSGLVDPNAASTPSLAPLLVGLGGTALGAWLLRRWRAS” as the sequence, how does the protein production read?
Its protein production is “failed”.

With “MRGPLSRPVCMKLGIDFGTSNSAAAAIVDGQVVPVRFGQALQFRTTVYFPETMRDPDDFSLTPALEYEVERLIDSGRRDALAAGRTPNNDSLRRDAIRIVRRQWMEEQVREPRSSAALLQNAVYGDEALDAYFLEGEGSLVQSPKSMLGYNLHPRARQTMTGIATHVLEHIRLTASRQFDINIRHATLGRPVQFRSSIGEAGNAQALEILQTAAIAAGFDSVDFLEEPAAAAMHYHVSHDSRHDTVVVDIGGGTTDVAHASVGGSAAPQVHRAWGIARGGTDIDLALSLAAYMPLFGRGITRVPTHHYVEAAMVQDMTRQREFRLHKYQDVPAPFDRRLQALQDTGNTARLYRGVEACKIALSELDRHQDALDFIERGLGVDVQAGALVASASNYLDELEGLLAQVRTEMATAPATVFLTGGMSRAGYIRDTVAAAFPESRLVHGDPSFGVVQGLAWAAAQDARLSDG” as the sequence, how does the protein production read?
Its protein production is “failed”.

For “MRGSHHHHHHTDPALRAATLLQLHFAFNGPFGDAMAEQLKPLAESINQEPGFLWKVWTESEKNHEAGGIYLFTDEKSALAYLEKHTARLKNLGVEEVVAKVFDVNEPLSQINQAKLAGLCGR”, which protein production is on record?
The protein production was “not failed”.

With “MRGYVLGLLALNLLTLIWGTTFVVVKGAVEGMAPSLLILLRFGVAALFFLPWLFRLPVGVFGPGMELAFWLFVGYASQTLGLAHTSASRSAFITALSVVLVPLLLRLAGREVGPAFLAAFLALAGVGLLSYDPYQPPFNVGDLWTFLTALAYALYIVRLEVHARAFPSLPLTAVQVLGTALFALPWVLAEGGAWGPVAWGAVLYLGVVATALTTWLQTWGQRHVPAPQAAILYTLEPVWAAFFAYLALGERLSPSGLLGALLVLLATLLAIRRSPA” as the sequence, how does the protein production read?
The protein production was “failed”.

Which protein production does the source give for “MRHFGPISGIATFKDTYVATAGYDNQVILWDARTRTPIQRVLHDHLANQCAFNAAGTLLVSASSDYTARVWEVPSLRLKTVLIGHDDDIEMAAFSPDGQTIATCSRDHSIRLFNLSGQTLRILHGHTADVISVCWSADGQTLVSSSDDGSIRRWDANTGQQLETIDLGGVETDTVALSREGIIFAGDDEGKISIISPRGTLLQPAHSAGIKRIIWDDSQRLLISLSYDRSVMLWHLKQDGTLVKTAETSLPSIIWPRSCALLGSHRIAFVTFGSRYATWDFATQTWDLSGIEPAVSLNAVAVVGEDVYSIGDAGILHINGQPSIKAGSLCNFLLPFGDSVLTGGQMGTVFDARTGATLYQHRSPLNCGTTFIKDGALHAAIGTYTGEALIFCLDQQQPRFVTQVRMHENAIKGIAADETYIFSVCATAAAAFFRIADFGLETYLDKAHERISNGCTQIQGGFASIGRDLKLRLWRDGASEVFDTPHSHSIKCIAISRDRSMIATGSYGGTVAVFDLKKRVWASVEKPTASGISCLIHDASGEGFLASAYDGRIYPITPRAAVQSARP” here?
Its protein production is “failed”.

Which protein production does the source give for “MRHVSNGDPVRVVIVTDGAYGAPAESGDYAQTRRRESTRAAAILGYGAPEFWNLPDRGLEYGERLIQRVLTAMEDHAAELVYAPSWWEVHPDHRVLALAATEAVRRCTRPLRLAMYEVGVPLQPNALLDITDLAERKASAVACFSSQLAQQDYDEQIASLNRFRTYTLPRTVRAAEGYLVLAAEELRNRIPRMMTQKDRLAVRGETGDTAATPLVSVIIPSMDGPRLKEALDSVALQTYPRIEAVVIDAKGEGHTPLPRWCGRFPLRFIPSDISLSRGRAADVGLEHAEGDYLVFLGEDDVFQPGDVASLVAEAARKQGTGLCSHADRRMTVFSGGVVDGSPRTGKPGKPAFLPLHAVLFDRSLAELRCRFDGDANVPEDGDFWDQAMQHVASIHPGACRHGHGLPGGEAGRHTIVRLPPWTSPAPLPPGASLARTPHPTERDSLRRRIQRAGRRIYETPPRGLTDALVRTAYRIWARLSSDSMITNDGKGTLEHHHHHH” here?
The protein production was “failed”.

Which protein production does the source give for “MRIEPRPLPETLPDLGDLPPLLARLYAARGVRCAEELDKGLARLIPYQRLKGIEEGVALLVDALEGGQRILIVGDFDADGATASSVGVLALRMLGAAWVDYLVPNRFEYGYGLTPEIVGVALEKRPDLLVTVDNGISSVDGVQAAKAAGLKVLVTDHHLPGPELPAADAIINPNQPGCEFPSKA” here?
The protein production was “failed”.

Which protein production does the source give for “MRIGVIMGGVSSEKQVSIMTGNEMIANLDKNKYEIVPITLNEKMDLIEKAKDIDFALLALHGKYGEDGTVQGTLESLGIPYSGSNMLSSGICMDKNISKKILRYEGIETPDWIELTKMEDLNFDELDKLGFPLVVKPNSGGSSVGVKIVYDKDELISMLETVFEWDSEVVIEKYIKGEEITCSIFDGKQLPIISIRHAAEFFDYNAKYDDASTIEEVIELPAELKERVNKASLACYKALKCSVYARVDMMVKDGIPYVMEVNTLPGMTQASLLPKSADAAGIHYSKLLDMIIETSLRVRKEEGF” here?
Its protein production is “not failed”.
